# According to patent US7344852 (Takeda / Millennium, dated 2008):
# B1: recombinant human dipeptidyl peptidase IV (DPPIV), residues 39-766 of SEQ ID NO:1 with part of a gp67 signal sequence and a 6x-histidine tag (SEQ ID NO:3) (enzyme)
# chain: ADPGGSHHHHHHSRKTYTLTDYLKNTYRLKLYSLRWISDHEYLYKQENNILVFNAEYGNSSVFLENSTFDEFGHSINDYSISPDGQFILLEYNYVKQWRHSYTASYDIYDLNKRQLITEERIPNNTQWVTWSPVGHKLAYVWNNDIYVKIEPNLPSYRITWTGKEDIIYNGITDWVYEEEVFSAYSALWWSPNGTFLAYAQFNDTEVPLIEYSFYSDESLQYPKTVRVPYPKAGAVNPTVKFFVVNTDSLSSVTNATSIQITAPASMLIGDHYLCDVTWATQERISLQWLRRIQNYSVMDICDYDESSGRWNCLVARQHIEMSTTGWVGRFRPSEPHFTLDGNSFYKIISNEEGYRHICYFQIDKKDCTFITKGTWEVIGIEALTSDYLYYISNEYKGMPGGRNLYKIQLSDYTKVTCLSCELNPERCQYYSVSFSKEAKYYQLRCSGPGLPLYTLHSSVNDKGLRVLEDNSALDKMLQNVQMPSKKLDFIILNETKFWYQMILPPHFDKSKKYPLLLDVYAGPCSQKADTVFRLNWATYLASTENIIVASFDGRGSGYQGDKIMHAINRRLGTFEVEDQIEAARQFSKMGFVDNKRIAIWGWSYGGYVTSMVLGSGSGVFKCGIAVAPVSRWEYYDSVYTERYMGLPTPEDNLDHYRNSTVMSRAENFKQVEYLLIHGTADDNVHFQQSAQISKALVDVGVDFQAMWYTDEDHGIASSTAHQHIYTHMSHFIKQCFSLP
# modifications: glycosylated; four or five residues per chain carry covalently linked sugar molecules (NAG), positions not given
# notes: Secreted from baculovirus-infected insect cells; crystallised as apo protein; The asymmetric unit holds four copies that form two dimers (A with B, C with D); also called DPP4; CD26
# Target: the molecule itself
# Assay: X-ray crystal structure of apo DPPIV (self-association, homodimer)
# Method: The structure of DPPIV was solved by a combination of heavy-atom derivatives and Seleno-Methionine (Se-Met) phasing in conjunction with non-crystallographic averaging. Heavy atom derivatives were obtained by soaking native DPPIV crystals in heavy atom solutions made using the crystallization solution. The concentration of heavy atom derivative and time of soaking varied between 0.5 mM to 10 mM and 1 to 15 days, respectively. An extensive array of heavy atom derivatives were individually soaked into DPPIV crystals and analyzed. Two heavy atom derivatives were used to determine the phases: di-m-iodobis (ethylene-diamine)-di-platinum (II) nitrate (PIP) and ethyl mercuric thiosalicylic acid sodium salt (EMTS). Data from crystals of apo DPPIV, Se-Met-DPPIV, PIP-DPPIV and EMTS-DPPIV were collected from cryocooled crystals (100K) at the Stanford Synchrotron Radiation Laboratory (SSRL) beam lines 9-1, 9-2 and 11-1 and the Advanced Light Source (ALS) beam lines 5.0.2 and 5.0.3 both using an ADSC Quantum CCD detector. […] Data were collected and integrated to 2.3 Å with MOSFLM (or HKL2000) and scaled with SCALA (or Scalepack) (CCP4 Study Weekend, Eds. Sawyer, L., Isaacs, N. & Bailey, S. 56-62, SERC Daresbury Laboratory, England, 1993).
# Crystals were obtained after an extensive and broad screen of conditions, followed by optimization. […]
protein,measurement,value
B1,binding result,binds
